Measurements as given in US12497460B2, “Anti-MSR1 antibodies and methods of use thereof” (REGENERON PHARMACEUTICALS, INC., priority 2018, dated 2025).

T1: His9-hMSR1 (human MSR1 extracellular domain) (Homo sapiens, UniProt P21757)
T1 construct: human MSR1 extracellular domain expressed with a N-terminal nonahistidine tag; His9 (nonahistidine) (N); purchased R&D Systems 2708-MS
T1 sequence (P21757 77-451 limits assumed): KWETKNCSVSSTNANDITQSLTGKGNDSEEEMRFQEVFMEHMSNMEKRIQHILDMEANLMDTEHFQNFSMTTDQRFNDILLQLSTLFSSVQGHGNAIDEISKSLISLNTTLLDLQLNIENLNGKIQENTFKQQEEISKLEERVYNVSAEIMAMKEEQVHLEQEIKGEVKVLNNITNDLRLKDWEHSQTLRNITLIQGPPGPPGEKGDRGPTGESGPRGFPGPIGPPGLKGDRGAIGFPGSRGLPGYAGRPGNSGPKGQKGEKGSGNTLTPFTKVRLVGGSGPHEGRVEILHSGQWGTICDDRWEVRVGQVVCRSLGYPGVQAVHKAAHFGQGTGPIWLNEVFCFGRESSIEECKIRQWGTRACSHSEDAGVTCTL

T2: PMA-treated THP-1 cells (endogenously expressed human MSR1) (Homo sapiens, UniProt P21757)
T2 construct: endogenous in cells; host or cells: THP-1 cells differentiated with PMA
T2 sequence (P21757 1-451): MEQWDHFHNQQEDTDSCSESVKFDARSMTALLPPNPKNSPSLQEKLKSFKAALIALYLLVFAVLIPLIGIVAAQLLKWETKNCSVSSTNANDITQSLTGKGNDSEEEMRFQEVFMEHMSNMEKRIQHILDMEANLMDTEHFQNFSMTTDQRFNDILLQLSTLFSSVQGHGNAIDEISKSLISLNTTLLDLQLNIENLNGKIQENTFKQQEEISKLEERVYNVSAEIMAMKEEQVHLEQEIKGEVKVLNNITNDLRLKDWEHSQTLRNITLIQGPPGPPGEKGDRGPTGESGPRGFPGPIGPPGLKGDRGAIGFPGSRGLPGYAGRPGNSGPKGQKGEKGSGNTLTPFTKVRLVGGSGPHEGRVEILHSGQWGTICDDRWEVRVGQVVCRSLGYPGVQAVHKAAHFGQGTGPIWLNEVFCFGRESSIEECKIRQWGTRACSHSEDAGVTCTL

B1: H1H27747P-N297Q (antibody, V domains shown)
VH: QVQLVESGGAVVQPGRSLRLSCAASGFTFSYYGMHWVRQAPGKGLEWVAVISYDGSKKYYADSVKGRFTISRDNSKNTLYLQMNSLRAEDTAVYYCAKDLTVDFYYGMDVWGQGTTVTVSS
VL: DIQMTQSPSSVSASVGDRVTITCRASQGISSWLAWYQQKPGKAPKLLIYATSSLQSGAPSRFSGSGSGTDFTLTISSLQPEDFATYFCQQANSFPYTFGQGTKLEIKR
B2: H1H27729P-N297Q: anti-MSR1 antibody "made with an N297Q single point mutation in human Fcγ portion" (antibody, V domains shown)
VH: QVQLVESGGGLVKPGGSLRLSCAASGFIFSDYYMSWIRQAPGKGLEWVSYISSSGTTIYGDSVKGRFTMSRDNAKNSLYLQMNSLRAEDTAVYYCARNYALFDYWGQGTLVTVSS
VL: DIQMTQSPSSLSASVGDRVTITCQASQDISKYLNWYQQKPGKAPKLLIYYTSNLETGVPSRFSGSGSGTDFTFTISSLQPEDIATYYCHQSDYLPFTFGPGTKVDIKR
B3: H1H27739P-N297Q: anti-MSR1 antibody "made with an N297Q single point mutation in human Fcγ portion" (antibody, V domains shown)
VH: EVQLVESGGGLVQPGGSLRLSCTASGFTFSSYAMSWVRQAPGKGLEWVSAISGTGSSTYFTDSVKGRFAISRDNSKNTLYLQMNSLRAEDTAVYYCAKDGEWLSTVTLFDYWGQGTLVTVSS
VL: EIVMTQSPATLSVSPGERATLSCRASQSVSSNLAWYQQKPGQAPRLLIYGASTRATGIPARFSGSGSGTDFTLTISSLQSEDFALYYCQQYFIWPPHPTFGPGTKVDIKR
B4: H1H21231N-N297Q: modified version of "21231N (H1H21231N-N297Q) anti-MSR1 antibodies" with "a N297Q single point mutation" (antibody, V domains shown)
VH: EVQLVESGGGLVQPGGSLRLSCAASGFTFSDHYMDWVRQAPGKGLEWVGRTRNKANSHTTEYTASVTGRFTISRDDSRNSLYLQMNSLKTEDTAVYYCVRAGIIGTLFDYWGQGTLVTVSS
VL: DIQMTQFPSSLSASVGDRVTITCRASQSISSFLNWFQQKPGKAPKFLIYAASSLQSGVPSRFSGSGSGTDFTLTISSLQPEDFATYYCQQSYSSPPITFGQGTRLEIKR
B5: H1H21231N: "anti-MSR1 antibodies ... (21227N, 21231N, 21234N) were produced with the original human Fcγ portion"; "H1H" = human IgG1 Fc (antibody, V domains shown)
VH: B4 VH
VL: B4 VL
modifications: human IgG1 Fc
notes: "anti-MSR1 antibodies ; (21227N, 21231N, 21234N) were produced with the original human Fcγ portion"; "H1H" = human IgG1 Fc
B6: H1H21234N-N297Q-LP13 (conjugate)
VH: QVQLQESGPGLVKPSETLSLTCTVTGGSISRNYWSWIRQPPGKGLEWIGYIYYSGSIDYNPSLKSRVTISVDTSKNQFSLKLSSMTAADTAVYYCARDRWNWKYGMDVWGQGTTVIVSS
VL: EIVLTQSPGTLSLSPGERATLSCRASQTVRNNYLAWYHQKPGQAPRLLIYGASSRATGIPDRFSGSGSGTDFTLTISRLEPEDFTVYYCHQYGNSPWTFGQGTKMEIKR

Biological target: HMM-mfMSR1 (monkey MSR1 extracellular domain)
Sequence (as listed by the source): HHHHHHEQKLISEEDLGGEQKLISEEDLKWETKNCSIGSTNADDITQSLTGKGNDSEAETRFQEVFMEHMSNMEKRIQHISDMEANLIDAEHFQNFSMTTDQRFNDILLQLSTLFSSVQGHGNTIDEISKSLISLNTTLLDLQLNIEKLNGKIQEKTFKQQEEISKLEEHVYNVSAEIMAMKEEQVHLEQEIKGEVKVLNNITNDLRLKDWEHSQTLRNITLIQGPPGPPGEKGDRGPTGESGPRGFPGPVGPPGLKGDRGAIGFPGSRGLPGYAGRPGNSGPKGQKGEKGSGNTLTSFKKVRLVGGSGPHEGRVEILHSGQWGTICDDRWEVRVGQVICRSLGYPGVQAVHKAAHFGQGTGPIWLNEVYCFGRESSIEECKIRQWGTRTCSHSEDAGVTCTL
Test: Biacore surface plasmon resonance binding kinetics of anti-MSR1 mAbs, antibody-capture format
Details: 25° C.; analyte HMM-mfMSR1; * = no dissociation observed, kd manually fixed at 1.00E−05; NB = no binding observed
Procedure: (§1) Binding affinities and kinetic constants of human anti-MSR1 antibodies for different MSR1 reagents were determined by real-time surface plasmon resonance (Biacore 4000). All binding studies were performed in 10 mM HEPES, 150 mM NaCl, 3 mM EDTA, and 0.05% v/v Surfactant Tween-20, pH 7.4 (HBS-ET) running buffer at 25° C. and 37° C.
(§2) The association rate (ka) and dissociation rate (kd) were determined by fitting the real-time binding sensorgrams to a 1:1 binding model with mass transport limitation using Scrubber 2.0c curve-fitting software. Binding dissociation equilibrium constant (KD) and dissociative half-life (t½) were calculated from the kinetic rates as: […]

| Molecule | kd [s⁻¹] |
| --- | --- |
| B1 | 0.000874 |
| B2 | 0.00212 |
| B3 | 0.000144 |
| B4 | 9.03e-05 |
| B5 | 6.39e-05 |

Same assay, conditions: 25° C.; analyte HMM-mfMSR1; antibody-capture format; NB = no binding observed

| Molecule | ka [M⁻¹ s⁻¹] |
| --- | --- |
| B1 | 231000 |
| B2 | 269000 |
| B3 | 352000 |
| B4 | 240000 |
| B5 | 274000 |

Same assay, conditions: 25° C.; analyte HMM-mfMSR1; calculated from kinetic rates; NB = no binding observed

| Molecule | Kd [nM] |
| --- | --- |
| B4 | 0.376 |
| B5 | 0.233 |

Same assay, conditions: 25° C.; analyte HMM-mfMSR1; dissociative half-life; NB = no binding observed

| Molecule | t½ [h] |
| --- | --- |
| B4 | 2.13 |
| B5 | 3.02 |

Same assay, conditions: 37° C.; analyte HMM-mfMSR1; * = no dissociation observed, kd manually fixed at 1.00E−05; NB = no binding observed

| Molecule | kd [s⁻¹] |
| --- | --- |
| B1 | 0.00228 |
| B2 | 0.00349 |
| B3 | 0.000842 |
| B4 | 0.000109 |
| B5 | 7.82e-05 |

Same assay, conditions: 37° C.; analyte HMM-mfMSR1; antibody-capture format; NB = no binding observed

| Molecule | ka [M⁻¹ s⁻¹] |
| --- | --- |
| B1 | 657000 |
| B2 | 407000 |
| B3 | 2.25e+06 |
| B4 | 587000 |
| B5 | 712000 |

Same assay, conditions: 37° C.; analyte HMM-mfMSR1; calculated from kinetic rates; NB = no binding observed

| Molecule | Kd [nM] |
| --- | --- |
| B4 | 0.186 |
| B5 | 0.11 |

Same assay, conditions: 37° C.; analyte HMM-mfMSR1; dissociative half-life; NB = no binding observed

| Molecule | t½ [h] |
| --- | --- |
| B4 | 1.77 |
| B5 | 2.47 |

Biological target: T1, His9-hMSR1 (human MSR1 extracellular domain)
Test: as above
Details: 25° C.; analyte His9-hMSR1; * = no dissociation observed, kd manually fixed at 1.00E−05; NB = no binding observed
Procedure: as §1, §2

| Molecule | kd |
| --- | --- |
| B1 | 0.000652 s⁻¹ |
| B2 | 0.00107 s⁻¹ |
| B3 | 0.00103 s⁻¹ |
| B4 | 5.88e-05 s⁻¹ |
| B5 | 1.00E−05* s^−1 |

Same assay, conditions: 25° C.; analyte His9-hMSR1; antibody-capture format; NB = no binding observed

| Molecule | ka [M⁻¹ s⁻¹] |
| --- | --- |
| B1 | 243000 |
| B2 | 197000 |
| B3 | 375000 |
| B4 | 399000 |
| B5 | 477000 |

Same assay, conditions: 25° C.; analyte His9-hMSR1; calculated from kinetic rates; NB = no binding observed

| Molecule | Kd [nM] |
| --- | --- |
| B4 | 0.147 |
| B5 | 0.021 |

Same assay, conditions: 25° C.; analyte His9-hMSR1; dissociative half-life; NB = no binding observed

| Molecule | t½ [h] |
| --- | --- |
| B4 | 3.27 |
| B5 | 19.25 |

Same assay, conditions: 37° C.; analyte His9-hMSR1; * = no dissociation observed, kd manually fixed at 1.00E−05; NB = no binding observed

| Molecule | kd [s⁻¹] |
| --- | --- |
| B1 | 0.00276 |
| B2 | 0.00204 |
| B3 | 0.00288 |
| B4 | 0.000115 |
| B5 | 9.09e-05 |

Same assay, conditions: 37° C.; analyte His9-hMSR1; antibody-capture format; NB = no binding observed

| Molecule | ka [M⁻¹ s⁻¹] |
| --- | --- |
| B1 | 513000 |
| B2 | 239000 |
| B3 | 776000 |
| B4 | 534000 |
| B5 | 702000 |

Same assay, conditions: 37° C.; analyte His9-hMSR1; calculated from kinetic rates; NB = no binding observed

| Molecule | Kd [nM] |
| --- | --- |
| B4 | 0.215 |
| B5 | 0.13 |

Same assay, conditions: 37° C.; analyte His9-hMSR1; dissociative half-life; NB = no binding observed

| Molecule | t½ [h] |
| --- | --- |
| B4 | 1.68 |
| B5 | 2.12 |

Biological target: T2, PMA-treated THP-1 cells (endogenously expressed human MSR1)
Test: Electrochemiluminescence antibody binding assay on MSR1-expressing cells
Type: cell-based
Details: not given

| Molecule | Ratio of 11 nM Antibody Binding Signal (RLU) to isotype control, PMA-treated THP-1 |
| --- | --- |
| B3 | 9 |
| B5 | 42 |

System: parental HEK293 cells
Test: Electrochemiluminescence antibody binding assay, non-specific binding control cells
Type: cell-based, human
Details: not given

| Molecule | Ratio of 11 nM Antibody Binding Signal (RLU) to isotype control, HEK293 |
| --- | --- |
| B2 | 3 |

Biological target: T1, His9-hMSR1 (human MSR1 extracellular domain)
Test: Biacore T200 surface plasmon resonance binding kinetics of anti-MSR1 antibody-drug conjugates and parental antibodies
Details: 25° C.; Table 19, antibody-LXR ADCs and unconjugated antibodies
Procedure: The MSR1 antibodies disclosed herein were conjugated to various liver X receptor (LXR) payloads or various steroid payloads. This example describes how equilibrium dissociation constant (KD) values for human MSR1 reagents binding to human anti-MSR1 antibody-drug conjugates and their corresponding unconjugated parental antibodies were determined using a real-time surface plasmon resonance-based Biacore T200 biosensor.
All binding studies were performed in 10 mM HEPES, 300 mM NaCl, 3 mM EDTA, and 0.05% v/v Surfactant Tween-20, pH 7.4 (HBS-ET) running buffer at 25° C. The Biacore CM4 sensor chip surface was first derivatized by amine coupling with the goat anti-human Fcγ specific polyclonal antibody (Jackson ImmunoResearch Laboratories, Cat #BR-1008-39) to capture anti-MSR1 monoclonal antibodies. Binding studies were performed on human MSR1 extracellular domain expressed with a N-terminal nonahistidine tag (His9-hMSR1; R&D Systems, Cat #2708-MS).
as §2
Binding kinetics parameters for His9-hMSR1 binding to different anti-MSR1 antibody-LXR ADCs and their unconjugated parental antibodies at 25° C. are shown in Table 19. “LP1” represents a linker-payload for which the payload structure is provided in Example 11.
The binding studies were repeated with anti-MSR1 antibody H1H21234-N297Q and steroid linker payloads (LPs). “LP3” represents a linker-payload for which the structure is provided in Example 23, and “LP13” represents a linker-payload for which the structure is provided in Example 24.

| Molecule | ka [M⁻¹ s⁻¹] |
| --- | --- |
| B1 | 117000 |
| B2 | 105000 |
| B3 | 119000 |

Same assay, conditions: 25° C.; Table 19; * = no dissociation observed, kd manually fixed at 1.00E−05

| Molecule | kd [s⁻¹] |
| --- | --- |
| B1 | 0.000262 |
| B2 | 0.000906 |
| B3 | 0.000555 |

Same assay, conditions: 25° C.; Table 20, antibody-steroid ADCs and unconjugated antibody

| Molecule | ka [M⁻¹ s⁻¹] |
| --- | --- |
| B6 | 400000 |

Same assay, conditions: 25° C.; Table 20; * = no dissociation observed, kd manually fixed at 1.00E−05

| Molecule | kd [s⁻¹] |
| --- | --- |
| B6 | 1e-05 |
